Measurements: PMC2199009

Key:
[1] = molecular target: purified full length LFA-1 (lymphocyte function–associated antigen 1) (human (endogenous in JY)) (UniProt P20701); experiment: adhesion in a parallel plate flow cell
[2] = molecular target: GPI-anchored form of the LFA-1 I domain (I-GPI), stably expressed on baby hamster kidney cells (UniProt P20701); experiment: radioligand binding

UniProt P20701, sequence (P20701 26-1170, chain 1 of 2): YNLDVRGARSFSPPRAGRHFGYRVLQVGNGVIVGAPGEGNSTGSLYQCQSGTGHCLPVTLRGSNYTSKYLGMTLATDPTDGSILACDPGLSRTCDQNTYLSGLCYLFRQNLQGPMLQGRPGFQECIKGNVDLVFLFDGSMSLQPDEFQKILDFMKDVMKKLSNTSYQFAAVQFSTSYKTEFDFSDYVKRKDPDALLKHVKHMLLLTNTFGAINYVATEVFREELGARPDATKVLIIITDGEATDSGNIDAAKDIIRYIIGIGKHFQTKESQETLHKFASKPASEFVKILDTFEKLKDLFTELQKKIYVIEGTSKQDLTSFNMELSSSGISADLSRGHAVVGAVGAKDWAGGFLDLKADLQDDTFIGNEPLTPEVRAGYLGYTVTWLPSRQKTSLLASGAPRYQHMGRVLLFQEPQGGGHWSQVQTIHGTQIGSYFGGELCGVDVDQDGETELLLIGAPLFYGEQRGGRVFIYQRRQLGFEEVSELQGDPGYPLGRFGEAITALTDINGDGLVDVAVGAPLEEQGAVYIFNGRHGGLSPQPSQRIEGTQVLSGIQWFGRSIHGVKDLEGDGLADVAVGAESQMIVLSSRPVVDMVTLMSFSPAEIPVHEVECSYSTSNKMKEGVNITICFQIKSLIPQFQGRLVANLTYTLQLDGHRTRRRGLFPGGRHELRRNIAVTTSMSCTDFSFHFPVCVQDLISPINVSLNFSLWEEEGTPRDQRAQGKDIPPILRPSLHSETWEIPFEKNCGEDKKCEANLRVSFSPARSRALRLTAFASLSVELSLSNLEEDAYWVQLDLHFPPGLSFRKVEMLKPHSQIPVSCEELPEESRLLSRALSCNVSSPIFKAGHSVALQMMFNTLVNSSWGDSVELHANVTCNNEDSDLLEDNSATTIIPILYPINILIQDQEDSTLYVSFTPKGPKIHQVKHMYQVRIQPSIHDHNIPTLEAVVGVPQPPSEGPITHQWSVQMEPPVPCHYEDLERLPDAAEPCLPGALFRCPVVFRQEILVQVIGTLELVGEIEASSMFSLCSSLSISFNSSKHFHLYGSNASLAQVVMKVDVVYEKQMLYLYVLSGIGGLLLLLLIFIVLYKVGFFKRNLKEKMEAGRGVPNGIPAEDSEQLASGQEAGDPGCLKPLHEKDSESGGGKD
UniProt P20701, sequence (P05107 23-769, chain 2 of 2, further chain): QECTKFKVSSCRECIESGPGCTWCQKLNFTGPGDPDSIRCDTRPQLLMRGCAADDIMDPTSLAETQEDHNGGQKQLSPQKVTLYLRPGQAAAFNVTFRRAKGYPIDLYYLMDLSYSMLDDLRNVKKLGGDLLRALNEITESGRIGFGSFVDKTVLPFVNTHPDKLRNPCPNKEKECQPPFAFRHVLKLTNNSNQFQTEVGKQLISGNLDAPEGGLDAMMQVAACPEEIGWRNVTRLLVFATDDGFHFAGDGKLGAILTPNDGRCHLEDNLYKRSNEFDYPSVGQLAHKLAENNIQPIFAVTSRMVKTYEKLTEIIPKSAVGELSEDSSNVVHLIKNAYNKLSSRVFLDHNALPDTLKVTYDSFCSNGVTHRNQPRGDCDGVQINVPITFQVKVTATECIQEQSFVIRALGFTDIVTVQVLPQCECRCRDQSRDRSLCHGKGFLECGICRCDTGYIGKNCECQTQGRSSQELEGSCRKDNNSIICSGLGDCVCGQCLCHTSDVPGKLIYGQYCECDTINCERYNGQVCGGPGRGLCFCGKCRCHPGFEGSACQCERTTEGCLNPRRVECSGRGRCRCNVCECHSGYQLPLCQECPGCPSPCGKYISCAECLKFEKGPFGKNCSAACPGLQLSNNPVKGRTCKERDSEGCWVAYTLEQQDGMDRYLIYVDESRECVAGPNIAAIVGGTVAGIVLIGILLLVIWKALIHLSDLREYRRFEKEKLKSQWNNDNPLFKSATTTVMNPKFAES

Substance | percent cells free [1] | percent cells rolling [1] | percent cells stable [1] | IC50 [2]
ICAM-1 GPI on transfected baby hamster kidney cells (domain or fragment) | 73% | 0% | 26% | 
soluble ICAM-1 (sICAM-1) (domain or fragment) |  |  |  | 150 µM
